This data set deals with the molecule itself. Briefly: AUC; sedimentation equilibrium, 4 °C, Beckman Optima XL-A, absorption optics; samples at 60 μM and 160 μM in 25 mM Tris pH 7.5-8.5, 500 mM NaCl (other salts in some runs); 11,000-22,000 rpm; single-species fits and global fits of monomer-dimer and other models; monomer to dimer.

Here are results for two proteins from publication PMC4549865, “The Escherichia coli NarL receiver domain regulates transcription through promoter specific functions” (BMC Microbiology, 2015).

As a reminder, the stoichiometry N is the number of molecules, sites or subunits per partner or assembly.

B1: NarL N-terminal domain plus linker region (NarL^N, residues 2-141), unphosphorylated (domain or fragment, Escherichia coli, UniProt P0AF28 2-141, looked up)
chain: SNQEPATILLIDDHPMLRTGVKQLISMAPDITVVGEASNGEQGIELAESLDPDLILLDLNMPGMNGLETLDKLREKSLSGRIVVFSVSNHEEDVVTALKRGADGYLLKDMEPEDLLKALHQAAAGEMVLSEALTPVLAAS
notes: NarL, nitrate response regulator of Escherichia coli; residues 2-141 (in-frame beginning at Ser2, stop codon introduced at Leu142); receiver domain and linker helix alpha6; The pQE9 construction puts a Gly in the place of Met1, before Ser2; also called NarL^(N (2–141)); NarL RD; source: E. coli JM109 (pQE9 derivative pMJ99), purified (Ni-NTA resin or HiTrap chelating column)
Take B1: the “stoichiometry N” value came to 2.

B2: Phosphorylated NarL receiver domain with portion of the linker (NarL^N-P, residues 2-141) (domain or fragment, Escherichia coli, UniProt P0AF28 2-141, looked up)
chain: B1 chain
modifications: phosphorylated with acetyl phosphate; the site of phosphorylation is Asp59
notes: NarL, nitrate response regulator of Escherichia coli; residues 2-141 (in-frame beginning at Ser2, stop codon introduced at Leu142); receiver domain and linker helix alpha6; The pQE9 construction puts a Gly in the place of Met1, before Ser2; also called phosphorylated NarL^N; phosphorylated RD
In the case of B2, the “stoichiometry N” value amounted to 2.
